Where a chain is given by its changes, count along the chain named. In names and notes the source's numbering stands.
B1: Li33 variant W104M (SEQ ID NO:176) (antibody, V domains shown)
VH: EVQLLESGGGLVQPGGSLRLSCAASGFTFSIYPMFWVRQAPGKGLEWVSWIGPSGGITKYADSVKGRFTISRDNSKNTLYLQMNSLRAEDTATYYCAREGHNDMYFDLWGRGTLVTVSS
VL: DIQMTQSPGTLSLSPGERATLSCRASQSVSSYLAWYQQKPGQAPRLLIYDASNRATGIPARFSGSGSGTEFTLTISSLQSEDFAVYYCQQYDKWPLTFGGGTKVEIKR
notes: unchanged chain from WT Li33
B2: Li33 variant W104V (SEQ ID NO:155) (antibody, V domains shown)
VH: B1 VH with M104V
VL: B1 VL
notes: unchanged chain from WT Li33
B3: Li33 variant W104Q (SEQ ID NO:187) (antibody, V domains shown)
VH: B1 VH with M104Q
VL: B1 VL
notes: unchanged chain from WT Li33
B4: Li33 variant W104T (SEQ ID NO:178) (antibody, V domains shown)
VH: B1 VH with M104T
VL: B1 VL
notes: unchanged chain from WT Li33
B5: Li33 variant W104Q (SEQ ID NO:158) (antibody, V domains shown)
VH: B1 VH with M104Q
VL: B1 VL
notes: unchanged chain from WT Li33
B6: Li33 variant W104S (SEQ ID NO:157) (antibody, V domains shown)
VH: B1 VH with M104S
VL: B1 VL
notes: unchanged chain from WT Li33
B7: Li81 (agly) (antibody, human IgG1)
heavy: not shown
VL: DIQMTQSPATLSLSPGERATLSCRASQSVSSYLAWYQQKPGQAPRLLIYDASNRATGIPARFSGSGSGTDFTLTISSLEPEDFAVYYCQQRSNWPMYTFGQGTKLEIK
notes: Aglycosylated fully human IgG1 (single T to A change in the heavy chain); also called Li81 Ig1agly; Li81 Mab; copies: 2 + 2

Legend:
LINGO-Fc [1] = target: T1, LINGO-Fc (human, UniProt Q96FE5 40-538, limits assumed); experiment: direct ELISA on LINGO-Fc; OD450 at saturation relative to Li33;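 also: binding to plate-coated LINGO-Fc read by OD450, with the value at maximal saturation divided by the corresponding Li33 value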
T1 construct: not shown: Fc part
T1 sequence: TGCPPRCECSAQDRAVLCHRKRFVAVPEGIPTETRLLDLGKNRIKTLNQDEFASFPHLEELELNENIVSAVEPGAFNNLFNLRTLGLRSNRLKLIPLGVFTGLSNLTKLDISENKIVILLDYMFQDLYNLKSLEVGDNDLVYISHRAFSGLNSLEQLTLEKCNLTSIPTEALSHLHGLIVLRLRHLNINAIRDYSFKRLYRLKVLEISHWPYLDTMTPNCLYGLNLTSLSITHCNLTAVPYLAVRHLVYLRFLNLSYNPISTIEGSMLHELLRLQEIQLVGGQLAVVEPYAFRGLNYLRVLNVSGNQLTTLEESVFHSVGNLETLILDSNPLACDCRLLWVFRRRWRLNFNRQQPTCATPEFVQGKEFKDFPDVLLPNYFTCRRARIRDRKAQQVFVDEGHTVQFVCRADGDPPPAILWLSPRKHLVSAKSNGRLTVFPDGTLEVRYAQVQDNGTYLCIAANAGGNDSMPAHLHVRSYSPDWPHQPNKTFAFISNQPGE

LINGO-Fc [2] = target: T1, LINGO-Fc; experiment: direct ELISA on LINGO-Fc; half-maximal concentration relative to Li33;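 also: direct binding ELISA on plates coated with LINGO-Fc, concentration giving half of saturating binding, expressed as a ratio to the same value for the comparator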
[3] = target: T2, human Fc receptor CD16-GST fusion protein (human, UniProt P08637 17-208); experiment: ALPHA competition vs biotinylated wild-type IgG1; receptor-GST
T2 construct: not shown: GST

[4] = target: T3, human Fc receptor CD32a-GST fusion protein (human, UniProt P12318 34-217); experiment: as above
T3 construct: not shown: GST
T3 sequence (looked up): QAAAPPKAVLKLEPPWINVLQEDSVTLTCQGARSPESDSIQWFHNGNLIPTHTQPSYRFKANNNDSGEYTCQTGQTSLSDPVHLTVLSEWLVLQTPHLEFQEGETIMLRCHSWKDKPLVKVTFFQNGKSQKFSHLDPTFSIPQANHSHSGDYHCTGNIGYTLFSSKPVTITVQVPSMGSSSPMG

[5] = target: T4, human Fc receptor CD32b-GST fusion protein (human, UniProt P31994 43-217); experiment: as above
T4 construct: not shown: GST
T4 sequence (looked up): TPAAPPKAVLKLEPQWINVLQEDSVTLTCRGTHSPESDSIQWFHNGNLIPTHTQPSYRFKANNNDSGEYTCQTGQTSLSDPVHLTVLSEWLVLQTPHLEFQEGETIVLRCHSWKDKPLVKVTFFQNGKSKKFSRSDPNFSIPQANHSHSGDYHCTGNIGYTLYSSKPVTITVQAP

[6] = target: T2, human Fc receptor CD16-GST fusion …; experiment: ALPHA competition vs biotinylated wild-type IgG1; relative to wt
[7] = target: T3, human Fc receptor CD32a-GST fusion …; experiment: as above
[8] = target: T4, human Fc receptor CD32b-GST fusion …; experiment: as above
[9] = target: T5, human Fc receptor CD64-GST fusion protein (human, UniProt P12314 16-292, limits assumed); experiment: as above
T5 construct: not shown: GST

Binder | Plateau Ratio (LINGO-Fc [1]) [ratio] | ELISA Ratio (LINGO-Fc [2]) [ratio] | other results
B1 | 0.88 | 3.8 | 
B2 | 0.94 | 2.8 | 
B3 | 0.67 | 1.1 | 
B4 | 0.33 | 3.5 | 
B5 | 0.91 | 2.4 | 
B6 | 0.85 | 2.7 | 
B7 |  |  | IC50 [3]: 179 µg/mL; IC50 [4]: 365 µg/mL; IC50 [5]: 350 µg/mL; fold decrease from wt [6]: 50 fold; fold decrease from wt [7]: 60 fold; fold decrease from wt [8]: 15 fold; fold decrease from wt [9]: > 100 fold
